The assay deals with GST-tagged FnbB. Put plainly: Pull-down with GST-tagged FnbB, proteins from rabbit reticulocyte translation system. The class given is binding, S. aureus. The conditions noted are these: cell-free protein translation system; GST alone as negative control.

Description: Recombinant proteins were produced from the isolated plasmids from the PPI-partners in a rabbit reticulocyte-based translation system and additionally in E. coli cells. The produced recombinant proteins were used for pull-down and immunoprecipitation experiments.

B1: FLNA: human protein interacting with FnbB, NCBI Protein GI 15779184 (protein)
chain: MPSGKVAQPTITDNKDGTVTVRYAPSEAGLHEMDIRYDNMHIPGSPLQFYVDYVNCGHVTAYGPGLTHGVVNKPATFTVNTKDAGEGGLSLAIEGPSKAEISCTDNQDGTCSVSYLPVLPGDYSILVKYNEQHVPGSPFTARVTGDDSMRMSHLKVGSAADIPINISETDLSLLTATVVPPSGREEPCLLKRLRNGHVGISFVPKETGEHLVHVKKNGQHVASSPIPVVISQSEIGDASRVRVSGQGLHEGHTFEPAEFIIDTRDAGYGGLSLSIEGPSKVDINTEDLEDGTCRVTYCPTEPGNYIINIKFADQHVPGSPFSVKVTGEGRVKESITRRRRAPSVANVGSHCDLSLKIPEISIQDMTAQVTSPSGKTHEAEIVEGENHTYCIRFVPAEMGTHTVSVKYKGQHVPGSPFQFTVGPLGEGGAHKVRAGGPGLERAEAGVPAEFSIWTREAGAGGLAIAVEGPSKAEISFEDRKDGSCGVAYVVQEPGDYEVSVKFNEEHIPDSPFVVPVASPSGDARRLTVSSLQESGLKVNQPASFAVSLNGAKGAIDAKVHSPSGALEECYVTEIDQDKYAVRFIPRENGVYLIDVKFNGTHIPGSPFKIRVGEPGHGGDPGLVSAYGAGLEGGVTGNPAEFVVNTSNAGAGALSVTIDGPSKVKMDCQECPEGYRVTYTPMAPGSYLISIKYGGPYHIGGSPFKAKVTGPRLVSNHSLHETSSVFVDSLTKATCAPQHGAPGPGPADASKVVAKGLGLSKAYVGQKSSFTVDCSKAGNNMLLVGVHGPRTPCEEILVKHVGSRLYSVSYLLKDKGEYTLVVKWGDEHIPGSPYRVVVP
Turning to B1, the “Co-purified with GST-tagged FnbB” value was “could be co-purified”.

B2: HSPC 118: human protein interacting with FnbB, NCBI Protein GI 6841458 (protein)
chain: MVGGGGVGGGLLENANPLIYQRSGERPVTAGEEDEQVPDSIDAREIFDLIRSINDPEHPLTLEELNVVEQVRVQVSDPESTVAVAFTPTIPHCSMATLIGLSIKVKLLRSLPQRFKMDVHITPGTHASEHAVNKQLADKERVAAALENTHLLEVVNQCLSARS
Turning to B2, the “Co-purified with GST-tagged FnbB” value is “could be co-purified”.

The values are drawn from patent US20100216191A1, “Method for Manufacturing a Modified Peptide” (PROCOMCURE BIOTECH GMBH, priority 2007, published 2010).
